First the molecules themselves.
B1: MR191 human monoclonal antibody (antibody, V domains shown)
VH: QLQLQESGPGLVKPSETLSLSCTVSGVSISDNSYYWGWIRQPPGKGLEWIGTISYSGNTYYNPSLKSRVSISGDTSKHQLSLKVSSVTAADTAVYYCARQRIVSGFVEWLSKFDYWGQGTLVTVSS
VL: QSVLTQPPSVSGAPGQRVTISCTGSSSNIGAGFDVHWYQQLPGTAPKLLIYDNNNRPSGVPDRFSGSKSGTSASLAITGLQAEDEADYYCQSYDTSLSGPVVFGGGTKLTVL
B2: MR229 (antibody)
chain 1: EVQLVESGGGLVKPGGSLRISCVTSGFTFGDYAMSWFRQAPGKGLEWVGFIRNKGYGGTIDYAASVKGRFTISRDDSKSIAYLQMNSLKTEDTAVYYCTGVRLHYDFWSGYDDDSFHIWGQGTM
chain 2: DGVMTQSPLSLPVTPGQPASISCRSTQSLVHGDGDTYLYWFQQRPGQSPRRLIYKVSNRDSGVPDRFSGSGSGTDFTLKISRVEAEDVGVYYCMQSTHWPPTFGQ
B3: MR209 (antibody)
chain 1: QLQLQESGPGLVKPSETLSLTCTVAGGPITSNNYYWGWIRQSPGKGLEWIGSVYYSGNTYYNPSIKTRVTMSVDTSKSQFSLKLNSVTAADTAVYYCARQFRLLQFVEWLHHFDSWGPGN
chain 2: SYVLTQPPSVSVAPGQTARIPCGGNDIANKRVHWYQQKPGQAPMLVVYDDGDRPSGIPERFSGSNSGNTATLTISRVEAGDEADYYCQVWENSSDLCVVFGGGTKLTVL
B4: MR65 (antibody, V domains shown)
VH: EVQLLESGGGLVQPGGSLRLSCAASGFTFSSYAMSWVRQAPGQGLEWVSGISATGGNTYYPDSVKGRFTISRDNSKNTLYLQMNSLRAEDTAVYYCARPLQFLTWFDPWGQGTLVTVSS
VL: EIVLTQSPATLSLSPGERATLSCRASQSVNNFLAWYQQKPGQPPRLLIYDATNRATGIPARFSGSGSGTDFTLTISSLEPEDFAVYHCQHRSNWPSITFGQGTRLEIK
B5: MR82 (antibody, V domains shown)
VH: QVQLVQSGAEVKKPGASVKVSCKASGHTFTTYAIHWVRQAPGQGLEWMGWINPDNDNTEYSQKFQGRVTITRDTSASTAYMELSSLISEDTAVFYCASASYTFWSGYYSGLDYWGQGTLVTVSS
VL: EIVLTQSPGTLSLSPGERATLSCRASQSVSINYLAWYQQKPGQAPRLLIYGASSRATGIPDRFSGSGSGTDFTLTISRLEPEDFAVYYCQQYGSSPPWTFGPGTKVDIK
B6: MR72 human monoclonal antibody (antibody, V domains shown)
VH: QLQLQESGPGLVKPSETLSLTCTVSGDSINNTNYYWAWIRQPPGKGLEYIGSIYYSGSTYYNPSLKSRVTMSVDASKNQFSLRLSSVTAADTAVYYCATHPTLGAFVLLWFGANFDHWGQGTLVTVSS
VL: QAVVTQPPSVSGAPGQRVTISCTGSSSNIGANYDVHWYQQLPGTAPKLLMYSNTNRPSGVPDRFSGSKSGTSASLAITGLQAEDEADYYCQSYDNSLNSWVFGGGTQLTVL
B7: MR208 (antibody, V domains shown)
VH: QVQLQESGPGLVKPSETLSLTCSVSGDSVSSGDYYWSWLRQPPGKGLEWIGYIYYSGATNYNPSLKSRVTISLDTSKNQFSLKLTSVTAADTAVYYCARERAGFLEWLFFEDWGQGT
VL: DIQMTQSPSSLSASVGDRVTIFCRASQSIGTYLSWYQQKPGKAPKVLIYATSNLQSGVPSRFSGSGSGTEFTLTISSLQPEDFATYYCQQSRTFGQGTKVDMK
B8: MR144 (antibody, V domains shown)
V domain 1: QVQLQESGPGLVKPSETLSLTCTVSGDSISRYYWSWIRQPPGKGLEWIGYLYYSGSTDYNPSLKSRVTISVDTSKNQFSLNLTSVTAADTAVYYCARGSSRGIGVVSHWFDPWGQGT
V domain 2: SYVLTQPPSVSVAPGQTARITCGGSNMGYKSVQWYQQRPGQAPVLVVYDDTDRPSGIPERFSGSNSGATATLTISSVEAGDEADYYCQVWDSSSDHHVVFGGGTQVTVL
B9: MR111 human monoclonal antibody (antibody, V domains shown)
V domain 1: QVQLQESGPGLVKPSETLSLTCTVSGDSINNYYWSWIRQPPGKGLEWIGYIYYSNTNYNPSLKSRVTISVDTSKNQFSLRLSSVTAADTAVYYCARSPLFWFGEFFSSPDHFDFWGQGTL
V domain 2: QSALTQPASVSGSPGQSITISCTGTSSDVGSYDLVSWYQQHPGKAPKLMLYEGTKRPSGVSNRFSGSKSGNTASLTISGLQAEDEADYYCCSYAGGSTLVFGGGTQVTVL
B10: MR232 (antibody, V domains shown)
VH: QLQLQESGPGLVKPSETLSLTCAVSGGSISSSGYCWGWIRQPPGKGLEWIASICSSGTTYFNSSLKSRVSISIDTSRPQFLLNLRSLTAADTAVYYCARQRMELHFLEWLFPFDSWGQGTLVTVSS
VL: DIVMTQSPATLSVSPGERATLSCRASQSVSSNLAWYQQKPGQAPRLLISGASTRATGIPARFSGSGSGTEFTLTISSLQSEDFAVYYCQQYINWPCSFGQGTKVDIK

The target of one test is Angola strain MARV GP ectodomain lacking residues 257-425 of the mucin-like domain (Marburg virus, Angola strain, UniProt Q1PD50 19-648). In words: ELISA.
In turn, B1 gave an EC50 of 5.1 µg/mL.

B2: the EC50 came out at 2.9 µg/mL.

The molecule B3 yielded an EC50 of 5.4 µg/mL.

B4 displayed an EC50 of 7.5 µg/mL.

B5 yielded an EC50 of 1.5 µg/mL.

B6 yielded an EC50 of 4.7 µg/mL.

Molecule B7 registered an EC50 of 7.3 µg/mL.

On to B8, for which the EC50 stood at 8 µg/mL.

As to B9, the midpoint of the response, the EC50, lay at 4.3 µg/mL.

As for B10, the EC50 was 1.3 µg/mL.

For the next test, the target named is EBOV Mayinga strain GP ectodomain lacking residues 314-462 of the mucin-like domain (Ebola virus, Mayinga strain, UniProt Q05320 33-650). As to the kind of experiment: ELISA.
Turning to B1, the EC50 is over 1000 µg/mL.

In turn, B2 came in with an EC50 of over 1000 µg/mL.

Take B3: the EC50 is over 1000 µg/mL.

As for B4, the 50% effective concentration (EC50) is over 1000 µg/mL.

For B5, the EC50 was over 1000 µg/mL.

B6 gave an EC50 of 2.1 µg/mL.

In the case of B7, the EC50 was over 1000 µg/mL.

Take B8: the EC50 is over 1000 µg/mL.

On to B9, for which the EC50 was over 1000 µg/mL.

For B10, the EC50 was over 1000 µg/mL.

For a further test, the target named is T1, Ravn strain cleaved MARV GP ectodomain (Marburg virus, Ravn strain, UniProt Q1PDC7 19-648).
T1 chain: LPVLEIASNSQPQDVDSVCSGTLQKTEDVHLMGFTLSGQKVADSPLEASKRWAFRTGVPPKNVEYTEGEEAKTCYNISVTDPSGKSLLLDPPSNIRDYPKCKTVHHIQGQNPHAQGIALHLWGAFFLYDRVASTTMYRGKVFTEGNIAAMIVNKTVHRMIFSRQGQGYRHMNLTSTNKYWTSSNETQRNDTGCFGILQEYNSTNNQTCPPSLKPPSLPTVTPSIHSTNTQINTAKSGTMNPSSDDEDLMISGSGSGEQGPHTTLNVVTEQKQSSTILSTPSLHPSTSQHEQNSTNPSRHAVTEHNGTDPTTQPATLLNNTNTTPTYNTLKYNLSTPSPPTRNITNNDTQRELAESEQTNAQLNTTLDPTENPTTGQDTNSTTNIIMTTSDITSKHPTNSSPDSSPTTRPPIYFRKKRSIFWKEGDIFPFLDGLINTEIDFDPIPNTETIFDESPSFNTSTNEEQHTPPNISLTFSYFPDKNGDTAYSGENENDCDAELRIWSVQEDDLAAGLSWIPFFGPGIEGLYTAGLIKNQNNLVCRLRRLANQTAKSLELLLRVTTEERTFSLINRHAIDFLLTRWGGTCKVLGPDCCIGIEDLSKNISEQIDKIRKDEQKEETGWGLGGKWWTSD
In words: ELISA.
Molecule B1 had a half-maximal effective concentration (EC50) of 1.4 µg/mL.

Molecule B2 had an EC50 of 1.2 µg/mL.

Consider B3, for which the EC50 was 2 µg/mL.

Molecule B4 gave an EC50 of 5 µg/mL.

B5: the EC50 was determined as 0.5 µg/mL.

Turning to B6, the midpoint of the response, the EC50, lay at 0.8 µg/mL.

B7: the EC50 was 2.8 µg/mL. Compared with the last molecule, the EC50 is about 3.5-fold higher.

Turning to B8, the response was half-maximal at 3.3 µg/mL (EC50).

In turn, B9 had an EC50 of 1.5 µg/mL.

For the molecule B10, the concentration for a half-maximal effect (EC50) turned out to be 0.5 µg/mL.

The target of another test is T2, EBOV Mayinga strain cleaved GP ectodomain (Ebola virus, Mayinga strain, UniProt Q05320 33-650).
T2 chain: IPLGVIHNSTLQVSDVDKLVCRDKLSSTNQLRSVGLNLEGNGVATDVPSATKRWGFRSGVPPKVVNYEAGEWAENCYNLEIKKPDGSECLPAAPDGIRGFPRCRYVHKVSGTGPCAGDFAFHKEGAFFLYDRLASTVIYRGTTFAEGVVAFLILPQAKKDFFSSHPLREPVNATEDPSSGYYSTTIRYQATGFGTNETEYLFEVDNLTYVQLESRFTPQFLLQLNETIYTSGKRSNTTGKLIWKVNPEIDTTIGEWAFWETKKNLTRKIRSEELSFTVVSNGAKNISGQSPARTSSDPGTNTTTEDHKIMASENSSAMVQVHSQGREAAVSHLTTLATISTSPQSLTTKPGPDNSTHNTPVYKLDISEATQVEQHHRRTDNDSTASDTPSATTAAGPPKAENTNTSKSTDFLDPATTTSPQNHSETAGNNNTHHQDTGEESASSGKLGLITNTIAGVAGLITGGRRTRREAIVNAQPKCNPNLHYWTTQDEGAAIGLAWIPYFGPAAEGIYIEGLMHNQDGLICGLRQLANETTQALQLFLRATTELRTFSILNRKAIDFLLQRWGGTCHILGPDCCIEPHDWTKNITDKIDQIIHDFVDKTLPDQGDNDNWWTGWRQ
In words: ELISA.
Regarding B1, the EC50 was under 0.1 µg/mL.

In the case of B2, the EC50 is over 1000 µg/mL.

B3 registered an EC50 of over 1000 µg/mL.

As to B4, the 50% effective concentration (EC50) is over 1000 µg/mL.

For the molecule B5, the EC50 is over 1000 µg/mL.

B6: the EC50 was under 0.1 µg/mL.

B7 had an EC50 of over 1000 µg/mL.

As for B8, the EC50 is over 1000 µg/mL.

Regarding B9, the EC50 is 21.5 µg/mL.

B10: the EC50 is over 1000 µg/mL.

Another test has as its target T3, EBOV Mayinga strain GP ectodomain containing the glycan cap and mucin-like domain (Ebola virus, Mayinga strain, UniProt Q05320 33-650).
T3 chain: T2 chain
In words: ELISA.
B1: the EC50 was over 1000 µg/mL.

B2: the EC50 is over 1000 µg/mL.

In turn, B3 registered an EC50 of over 1000 µg/mL.

B4 had an EC50 of over 1000 µg/mL.

In the case of B5, the EC50 was over 1000 µg/mL.

Turning to B6, the response was half-maximal at 6.1 µg/mL (EC50).

As to B7, the EC50 is over 1000 µg/mL.

B8: the EC50 is over 1000 µg/mL.

As for B9, the EC50 was over 1000 µg/mL.

Molecule B10 had an EC50 of over 1000 µg/mL.

A further test addresses T4, Angola strain MARV GP ectodomain containing the mucin-like domain (Marburg virus, Angola strain, UniProt Q1PD50 19-648).
T4 chain: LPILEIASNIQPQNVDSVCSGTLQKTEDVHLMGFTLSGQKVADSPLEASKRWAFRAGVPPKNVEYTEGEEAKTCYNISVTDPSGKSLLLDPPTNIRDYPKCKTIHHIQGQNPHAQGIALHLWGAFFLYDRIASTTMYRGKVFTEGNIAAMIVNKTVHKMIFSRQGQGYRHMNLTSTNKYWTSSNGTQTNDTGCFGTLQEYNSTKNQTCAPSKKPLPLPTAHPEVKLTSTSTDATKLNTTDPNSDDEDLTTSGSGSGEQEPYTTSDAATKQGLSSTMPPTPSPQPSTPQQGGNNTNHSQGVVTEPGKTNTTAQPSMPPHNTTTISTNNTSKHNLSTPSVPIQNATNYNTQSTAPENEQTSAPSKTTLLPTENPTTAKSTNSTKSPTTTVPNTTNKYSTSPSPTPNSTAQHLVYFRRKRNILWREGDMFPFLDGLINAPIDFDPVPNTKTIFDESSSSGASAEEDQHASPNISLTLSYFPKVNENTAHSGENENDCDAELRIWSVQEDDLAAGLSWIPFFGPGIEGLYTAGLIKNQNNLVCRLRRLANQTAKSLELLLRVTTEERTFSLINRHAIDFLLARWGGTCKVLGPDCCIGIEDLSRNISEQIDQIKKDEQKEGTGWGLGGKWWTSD
In words: ELISA.
As for B1, the EC50 was 2.5 µg/mL.

B2 came in with an EC50 of 1.8 µg/mL.

Regarding B3, a half-maximal effect (EC50) was put at 4 µg/mL.

Molecule B4 registered an EC50 of 8.3 µg/mL.

As to B5, the EC50 is 1 µg/mL.

B6: the EC50 came to 3 µg/mL.

B7 displayed an EC50 of 5.6 µg/mL.

Take B8: the EC50 came out at 8.1 µg/mL.

In turn, B9 yielded an EC50 of 2.5 µg/mL.

As for B10, the midpoint of the response, the EC50, lay at 2 µg/mL.

The values are drawn from US20210324051A1 (published 2021).
